According to patent EP0571387B1:

Target: c-met protooncogene product (HGF receptor) on B5/589 human mammary epithelial cells (human) (UniProt P08581)
Test: cell-based or functional assay

UniProt P08581, sequence (P08581 25-1390): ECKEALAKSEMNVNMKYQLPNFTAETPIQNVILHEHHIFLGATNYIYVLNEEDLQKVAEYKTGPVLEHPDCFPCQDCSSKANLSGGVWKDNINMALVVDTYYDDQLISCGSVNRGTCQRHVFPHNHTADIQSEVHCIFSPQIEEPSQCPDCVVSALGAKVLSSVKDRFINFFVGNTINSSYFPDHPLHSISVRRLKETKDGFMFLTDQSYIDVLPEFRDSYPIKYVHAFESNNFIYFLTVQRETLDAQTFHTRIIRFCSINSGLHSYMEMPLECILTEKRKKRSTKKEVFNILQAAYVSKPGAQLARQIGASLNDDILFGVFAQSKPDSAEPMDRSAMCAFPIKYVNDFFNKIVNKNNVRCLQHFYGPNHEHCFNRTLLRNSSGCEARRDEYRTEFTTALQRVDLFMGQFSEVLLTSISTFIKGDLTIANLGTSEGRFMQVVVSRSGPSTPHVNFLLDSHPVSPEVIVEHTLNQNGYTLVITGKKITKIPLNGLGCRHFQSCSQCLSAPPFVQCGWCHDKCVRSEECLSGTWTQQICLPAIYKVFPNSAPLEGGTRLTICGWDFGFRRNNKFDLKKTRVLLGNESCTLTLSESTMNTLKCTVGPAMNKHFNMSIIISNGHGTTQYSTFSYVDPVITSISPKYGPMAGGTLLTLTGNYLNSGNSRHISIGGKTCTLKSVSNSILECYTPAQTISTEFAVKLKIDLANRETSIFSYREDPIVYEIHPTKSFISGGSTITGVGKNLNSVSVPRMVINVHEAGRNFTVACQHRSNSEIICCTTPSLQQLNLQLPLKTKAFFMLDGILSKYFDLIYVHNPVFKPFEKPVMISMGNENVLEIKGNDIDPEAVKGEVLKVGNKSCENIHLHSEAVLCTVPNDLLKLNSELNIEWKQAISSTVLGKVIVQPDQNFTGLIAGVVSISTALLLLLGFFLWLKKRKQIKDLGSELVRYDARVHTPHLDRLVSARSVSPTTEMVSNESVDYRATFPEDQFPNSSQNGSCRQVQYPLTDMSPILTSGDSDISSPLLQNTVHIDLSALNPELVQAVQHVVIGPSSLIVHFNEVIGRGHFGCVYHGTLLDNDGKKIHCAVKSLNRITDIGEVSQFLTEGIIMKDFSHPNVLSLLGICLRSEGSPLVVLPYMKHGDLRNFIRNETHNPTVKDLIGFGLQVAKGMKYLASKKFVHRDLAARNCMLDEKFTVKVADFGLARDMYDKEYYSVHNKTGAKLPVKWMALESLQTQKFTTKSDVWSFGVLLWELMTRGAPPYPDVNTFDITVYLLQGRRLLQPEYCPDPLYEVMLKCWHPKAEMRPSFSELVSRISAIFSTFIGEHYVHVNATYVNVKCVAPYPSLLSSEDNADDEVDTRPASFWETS

Substance: HGF/NK2 (34 kd truncated HGF variant, naturally occurring, purified from conditioned medium of SK-LMS-1 cells) (ligand)
- inhibition of HGF-induced [3H]-thymidine incorporation in B5/589 cells (fold molar excess over HGF): 10 to 20
